Assay results: publication PMC11096006 (Immunity, 2024)

Target: Linear di-ubiquitin (UniProt P0CG48 1-76; P0CG48 1-76)
Assay: crystal structure

binding result: binds
Binder: QRSSAETSELREALLKIFPDSEQKLKIDQILAAHPYMKDLNALSALVLD (domain or fragment, UniProt Q6A037 845-893, looked up) [N4BP1 CUE-like domain (Q845-D893)]
